Assays:
[1] = target: T1, human CCL2 (MCP1) - wild type (wt) (human, UniProt P13500 24-99); experiment: cell-based or functional assay
[2] = target: T2, human CCL2 (MCP1) - P8A variant (human, UniProt P13500 24-99); experiment: SPR Biacore T200, 37 C, antibody captured, CCL2 as analyte, 1:1 model
T2 construct: Entry is without signal peptide; P8A prevents dimer formation (pure monomer); made in-house; also called monomeric human CCL2; monomeric CCL2

[3] = target: T1, human CCL2 (MCP1) - wild type (wt); experiment: as above

| IC50, inhibition of THP-1 migration towards recombinant huCCL2 [1] | T½ [2] | T½ [3] | Binder |
| --- | --- | --- | --- |
| 0.2 µg/mL | – | – | CKLO02 IgG1 (bispecific antibody) heavy 1: not shown heavy 2: not shown light 1: QVQLVQSGAEVKKPGSSVKVSCKASGLTISHTYMHWVRQAPGQGLEWMGRIDPDNHNTKFDPKFQGRVTITADTSTSTAYMELSSLRSEDTAVYYCARGVFGFFEHWGQGTTVTVSSASVAAPSVFIFPPSDEQLKSGTASVVCLLNNFYPREAKVQWKVDNALQSGNSQESVTEQDSKDSTYSLSSTLTLSKADYEKHKVYACEVTHQGLSSPVTKSFNRGEC light 2: EIVLTQSPATLSLSPGERATLSCRASQHVSDAYLAWYQQKPGQAPRLLIYDASDRAEGVPARFSGSGSGTDFTLTISSLEPEDFAVYYCHQYIHLHSFTFGQGTKVEIKRTVAAPSVFIFPPSDRKLKSGTASVVCLLNNFYPREAKVQWKVDNALQSGNSQESVTEQDSKDSTYSLSSTLTLSKADYEKHKVYACEVTHQGLSSPVTKSFNRGEC |
| 0.2 µg/mL | – | – | CKLO2-SG1095 (bispecific antibody) heavy 1: DIQMTQSPSSLSASVGDRVTITCKAFEDIYNRRAWYQQKPGKAPKLLIHGATSLEHGVPSRFSGSGSGTDYTLTISSLQPEDFATYYCQQFWSAPYTFGGGTKVEIKSSASTKGPSVFPLAPSSKSTSGGTAALGCLVKDYFPEPVTVSWNSGALTSGVHTFPAVLQSSGLYSLSSVVTVPSSSLGTQTYICNVNHKPSNTKVDKKVEPKSCDKTHTCPPCPAPELWNGPSVFLFPPKPKDTLMISRTPEVTCVVVDVSDEDPEVKFNWYVDGVEVHNAKTKPREELYNSTYRVVSVLTVLHRDWLNGKEYKCKVSNTALPKPIEKTISKAKGQRREPQVYTLPPCRDELTKNQVSLWCLVKGFYPSDIAVEWESNGQPENNYKTTPPVLDSDGSFFLYSKLTVDKSRWQQGNVFSCSVMHEALHAHYTRKELSLSP heavy 2: not shown light 1: QVQLVQSGAEVKKPGSSVKVSCKASGLTISHTYMHWVRQAPGQGLEWMGRIDPDNHNTKFDPKFQGRVTITADTSTSTAYMELSSLRSEDTAVYYCARGVFGFFEHWGQGTTVTVSSASVAAPSVFIFPPSDEQLKSGTASVVCLLNNFYPREAKVQWKVDNALQSGNSQESVTEQDSKDSTYSLSSTLTLSKADYEKHKVYACEVTHQGLSSPVTKSFNRGEC light 2: EIVLTQSPATLSLSPGERATLSCRASQHVSDAYLAWYQQKPGQAPRLLIYDASDRAEGVPARFSGSGSGTDFTLTISSLEPEDFAVYYCHQYIHLHSFTFGQGTKVEIKRTVAAPSVFIFPPSDRKLKSGTASVVCLLNNFYPREAKVQWKVDNALQSGNSQESVTEQDSKDSTYSLSSTLTLSKADYEKHKVYACEVTHQGLSSPVTKSFNRGEC |
| 0.2 µg/mL | – | – | CKLO2-GG01 (bispecific antibody) heavy 1: DIQMTQSPSSLSASVGDRVTITCKAFEDIYNRRAWYQQKPGKAPKLLIHGATSLEHGVPSRFSGSGSGTDYTLTISSLQPEDFATYYCQQFWSAPYTFGGGTKVEIKSSASTKGPSVFPLAPSSKSTSGGTAALGCLVKDYFPEPVTVSWNSGALTSGVHTFPAVLQSSGLYSLSSVVTVPSSSLGTQTYICNVNHKPSNTKVDKKVEPKSCDKTHTCPPCPAPEYLGGDSVFLFPPKPKDVLMISRTPEVTCVVIDVSHEDPEVKFNWYVDGVEVHNAKTKPREEQYNSTYRVVSVLPVLHRDWLNGKEYKCKVSNKALPKPIEKTISKAKGQRREPQVYTLPPCRDELTKNQVSLWCLVKGFYPSDIAVEWESNGQPENNYKTTPPVLDSDGSFFLYSKLTVDKSRWQQGNVFSCSVMHEALHAHYTRKELSLSP heavy 2: not shown light 1: QVQLVQSGAEVKKPGSSVKVSCKASGLTISHTYMHWVRQAPGQGLEWMGRIDPDNHNTKFDPKFQGRVTITADTSTSTAYMELSSLRSEDTAVYYCARGVFGFFEHWGQGTTVTVSSASVAAPSVFIFPPSDEQLKSGTASVVCLLNNFYPREAKVQWKVDNALQSGNSQESVTEQDSKDSTYSLSSTLTLSKADYEKHKVYACEVTHQGLSSPVTKSFNRGEC light 2: EIVLTQSPATLSLSPGERATLSCRASQHVSDAYLAWYQQKPGQAPRLLIYDASDRAEGVPARFSGSGSGTDFTLTISSLEPEDFAVYYCHQYIHLHSFTFGQGTKVEIKRTVAAPSVFIFPPSDRKLKSGTASVVCLLNNFYPREAKVQWKVDNALQSGNSQESVTEQDSKDSTYSLSSTLTLSKADYEKHKVYACEVTHQGLSSPVTKSFNRGEC |
| 0.2 µg/mL | – | – | CKLO2-GG02 (bispecific antibody) heavy 1: DIQMTQSPSSLSASVGDRVTITCKAFEDIYNRRAWYQQKPGKAPKLLIHGATSLEHGVPSRFSGSGSGTDYTLTISSLQPEDFATYYCQQFWSAPYTFGGGTKVEIKSSASTKGPSVFPLAPSSKSTSGGTAALGCLVKDYFPEPVTVSWNSGALTSGVHTFPAVLQSSGLYSLSSVVTVPSSSLGTQTYICNVNHKPSNTKVDKKVEPKSCDKTHTCPPCPAPEYLGGDSVFLFPPKPKDVLMISRTPEVTCVVIDVSHEDPEVKFNWYVDGVEVHNAKTKPREEQYNSTYRVVSVLPVLHRDWLNGKEYKCKVSNKALPKPIEKTISKAKGQRREPQVYTLPPCRDELTKNQVSLWCLVKGFYPSDIAVEWESNGQPENNYKTTPPVLDSDGSFFLYSKLTVDKSRWQQGNVFSCSVLHEALHAHTTRKELSLSP heavy 2: not shown light 1: QVQLVQSGAEVKKPGSSVKVSCKASGLTISHTYMHWVRQAPGQGLEWMGRIDPDNHNTKFDPKFQGRVTITADTSTSTAYMELSSLRSEDTAVYYCARGVFGFFEHWGQGTTVTVSSASVAAPSVFIFPPSDEQLKSGTASVVCLLNNFYPREAKVQWKVDNALQSGNSQESVTEQDSKDSTYSLSSTLTLSKADYEKHKVYACEVTHQGLSSPVTKSFNRGEC light 2: EIVLTQSPATLSLSPGERATLSCRASQHVSDAYLAWYQQKPGQAPRLLIYDASDRAEGVPARFSGSGSGTDFTLTISSLEPEDFAVYYCHQYIHLHSFTFGQGTKVEIKRTVAAPSVFIFPPSDRKLKSGTASVVCLLNNFYPREAKVQWKVDNALQSGNSQESVTEQDSKDSTYSLSSTLTLSKADYEKHKVYACEVTHQGLSSPVTKSFNRGEC |
| 0.3 µg/mL | – | – | CKLO2-GG03/GG04 (bispecific antibody) heavy 1: DIQMTQSPSSLSASVGDRVTITCKAFEDIYNRRAWYQQKPGKAPKLLIHGATSLEHGVPSRFSGSGSGTDYTLTISSLQPEDFATYYCQQFWSAPYTFGGGTKVEIKSSASTKGPSVFPLAPSSKSTSGGTAALGCLVKDYFPEPVTVSWNSGALTSGVHTFPAVLQSSGLYSLSSVVTVPSSSLGTQTYICNVNHKPSNTKVDKKVEPKSCDKTHTCPPCPAPEYLGGDSVFLFPPKPKDVLMISRTPEVTCVVIDVSHEDPEVKFNWYVDGVEVHNAKTKPREEQYNSTYRVVSVLPVLHRDWLNGKEYKCKVSNKALPKPIEKTISKAKGQRREPQVYTLPPCREEMTKNQVSLWCLVKGFYPSDIAVEWESNGQPENNYKTTPPVLDSDGSFFLYSKLTVDKSRWQQGNVFSCSVMHEALHAHYTRKELSLSP heavy 2: not shown light 1: QVQLVQSGAEVKKPGSSVKVSCKASGLTISHTYMHWVRQAPGQGLEWMGRIDPDNHNTKFDPKFQGRVTITADTSTSTAYMELSSLRSEDTAVYYCARGVFGFFEHWGQGTTVTVSSASVAAPSVFIFPPSDEQLKSGTASVVCLLNNFYPREAKVQWKVDNALQSGNSQESVTEQDSKDSTYSLSSTLTLSKADYEKHKVYACEVTHQGLSSPVTKSFNRGEC light 2: EIVLTQSPATLSLSPGERATLSCRASQHVSDAYLAWYQQKPGQAPRLLIYDASDRAEGVPARFSGSGSGTDFTLTISSLEPEDFAVYYCHQYIHLHSFTFGQGTKVEIKRTVAAPSVFIFPPSDRKLKSGTASVVCLLNNFYPREAKVQWKVDNALQSGNSQESVTEQDSKDSTYSLSSTLTLSKADYEKHKVYACEVTHQGLSSPVTKSFNRGEC |
| – | 3.63 h | 2.95 h | 1G9 (antibody, V domains shown, Generated as IgG1 wild type and IgG1 PGLALA with kappa light chain; also called CCL2-0010) VH: QSLEESGGDLVKPGASLTLTCKASGIDFSLYSYMCWVRQAPGKGLEWIACVDAGASGSTYYASWAKGRFTISKTSSTTVTLQMTSLTAADTATYFCARGILYYTWPYPAGAIDAFDSWGPGTLVTVSS VL: AYDMTQTPASVSEPVGGTVTIKCQASESISNYLSWYQQKPGQPPKLLIYKASTLASGVPSRFKGSGSGTEYTVTISGVQSDDAATYYCQQSYSSSNVFNTFGGGTEVVVK |
| – | 2.28 h | 2.67 h | 1A5 (antibody, V domains shown, Generated as IgG1 wild type and IgG1 PGLALA with kappa light chain; also called CCL2-0009) VH: QEQLVESGGDLVKPEGSLTLTCTASGFSFSTSYWMCWVRQAPGKGLELIACISSSIGVTYYASWAEGRFTISKTSSTTVTLQMTSLTVADTATYFCARTTDDNWNVGFNLWGPGTLVTVSS VL: AYDMTQTPASVEVGVGGTVTIKCQASQSIGNRYLSWYQQKPGQPPKLLIYGTSTLASGVSSRFKGSGSGTQFTLTISGVESADSATYYCQQGATISYLDNAFGGGTEVVVK |
| – | 2.9 h | 1.67 h | 1A4 (antibody, V domains shown, also called CCL2-0008) VH: QSLEESGGDLVKPGASLTLTCTASELDFYWICWVRQAPGKGLEWIACIGAGSSGSTYYASWAKGRFTVSKTSSTTVTLQMTSLTAADTATYFCARTGTEFTYYSLWGPGTLVTVSS VL: ALVMTQTPSSVSAAVGGTVTINCQASQSVYNNNMAWYQQKPGQPPKLLIYTASSLASGVPSHFRGSGSGTQFTLTISDLESDDAATYYCAGYKSYSNDEYGFGGGTEVVVK |
| – | 8.63 h | 0.317 h | murine 11K2 (antibody, V domains shown, also called 11K2m; X-0048) VH: EVQLQQSGAELVKAGASVKLSCPASGLNIKDTYMHWVKQRPEQGLEWIGRIDPANGNTKFDPKFQGKATITADTSSNTAYLQLSSLTSEDTAVYYCARGVFGFFDYWGQGTTLTVSS VL: DIQMTQSSSSFSVSLGDRVTITCKATEDIYNRLAWYQQKPGSAPRLLISGATSLETGVPSRFSGSGSGKDYTLSITSLQTEDVATYYCQQFWSAPYTFGGGTKLEIK |
| – | 0.783 h | 0.867 h | 2F6 (antibody, V domains shown, Generated as IgG1 wild type and IgG1 PGLALA with kappa light chain; also called CCL2-0014) VH: QSLEESGGGLVQPEGSLTLTCTASGFSFNNNYYMCWVRQAPGKGLEWIGCISTDDSNTHYASWAQGRFTISKASSTALTLQVAGLTVADMATYFCARDAHFTSYGYGFDLWGPGTLVTVSS VL: DIVMTQTPASVSAAVGGTVSINCRASEDIENLVAWYQQKPGQPPKLLIYQASKLASGVPSRFKGSGSGAEFTLTIGDLESADAATYYCQGDYGSGWIMYSFGGGTDLVVK |

— patent US20240117029A1 (Hoffmann-La Roche, published 2024)
